Measured values taken from publication doi:10.1101/2021.12.04.471219 (bioRxiv, 2021).
Several values for one entry are separate records, joined by “and”; a condition that tells them apart may be missing. Equal entries are not always repeated.

T1: MPP5 PDZ domain (residues 238-336) (human, UniProt Q8N3R9 238-336)
T1 sequence: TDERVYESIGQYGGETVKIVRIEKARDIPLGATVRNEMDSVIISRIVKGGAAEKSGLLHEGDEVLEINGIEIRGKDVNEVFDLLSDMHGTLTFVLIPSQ

T2: LNX2 PDZ2 domain (residues 334-426) (human, UniProt Q8N448 334-426)
T2 sequence: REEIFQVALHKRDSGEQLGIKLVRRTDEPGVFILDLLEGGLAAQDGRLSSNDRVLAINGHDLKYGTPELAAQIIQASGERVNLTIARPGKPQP

B1: C-terminal SARS-CoV-2-E PBM peptide (12-mer, original strain) (peptide)
peptide: NLNSSRVPDLLV
B2: ZO-1 PDZ2 domain (residues 184-264) (domain or fragment)
chain: PTKVTLVKSRKNEEYGLRLASHIFVKEISQDSLAARDGNIQEGDVVLKINGTVTENMSLTDAKTLIERSKGKLKMVVQRDE

Legend:
[1] = target: MLLT4 PDZ domain (residues 961-1056) (human) (UniProt P55196); experiment: MST
[2] = target: PARD3 PDZ3 domain (residues 582-685) (human, UniProt Q8TEW0 582-685); experiment: MST
[3] = target: B2; experiment: MST
[4] = target: T1, MPP5 PDZ domain (residues 238-336); experiment: MST
[5] = target: T2, LNX2 PDZ2 domain (residues 334-426); experiment: MST
AUC = target: the molecule itself; experiment: AUC

Chain of PARD3 PDZ3 domain (residues 582-685) (Q8TEW0 582-685): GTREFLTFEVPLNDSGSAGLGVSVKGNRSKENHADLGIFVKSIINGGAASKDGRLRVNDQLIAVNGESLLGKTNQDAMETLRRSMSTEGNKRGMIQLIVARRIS

Molecule “C-terminal SARS-CoV-2-E PBM peptide (12-mer, original strain)” has a Kd [1] of 569 µM.

Work on B1 yielded a Kd [2] of 341 µM, a Kd [3] of 15 µM and a Kd [4] of 30 µM. It also gave a Kd [5] of 289 µM.

For B2, the “stoichiometry N” value (AUC) was 2 and ~4.
